According to paper PMC6906086:

How the values were obtained:
Lsr2BD WT = Lsr2BD WT (Mycobacterium tuberculosis H37Rv, UniProt P9WIP7 66-112); test: fluorescence anisotropy; pH 7.5; 4 nM DNA; settings: protein: recombinant; tags: 6xHis; label: 5' Alexa Fluor 488; blunt
Lsr2 = Lsr2 (Mycobacterium tuberculosis H37Rv, UniProt P9WIP7 1-112); test: EMSA; 0.95-7.6 uM Lsr2; settings: protein: recombinant; (pET15-TEV, Ni-NTA); chain copies: 2; blunt

| Binder | Kd (Lsr2BD WT) [nM] | binding result (Lsr2) |
| --- | --- | --- |
| AT-rich 14-mer (dsDNA) DNA 1: CGCGCATATATGCG DNA 2: CGCATATATGCGCG | 210 ± 60 |  |
| leuS site (dsDNA) DNA 1: AATTCGGCAAAATCGGTAAG DNA 2: CTTACCGATTTTGCCGAATT |  | binds |
